Experimental data: patent US20210403565A1 (BIOATLA, published 2021)

T1: cynomolgus CTLA4 expressed on the cell surface of CHO cells (cynomolgus, UniProt G7PL88 36-223)
T1 construct: whole, on cells; also called CHO-cynoCTLA4
T1 sequence: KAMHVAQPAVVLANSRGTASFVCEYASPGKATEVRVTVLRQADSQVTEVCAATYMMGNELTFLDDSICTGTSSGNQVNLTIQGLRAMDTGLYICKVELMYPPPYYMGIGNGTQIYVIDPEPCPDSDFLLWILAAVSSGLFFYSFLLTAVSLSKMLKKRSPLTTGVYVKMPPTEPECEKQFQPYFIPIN

T2: recombinant cynomolgus CTLA4 extracellular domain (cynomolgus, UniProt G7PL88 36-161)
T2 construct: extracellular domain; also called cynoCTLA-4; cynoCTLA4
T2 sequence: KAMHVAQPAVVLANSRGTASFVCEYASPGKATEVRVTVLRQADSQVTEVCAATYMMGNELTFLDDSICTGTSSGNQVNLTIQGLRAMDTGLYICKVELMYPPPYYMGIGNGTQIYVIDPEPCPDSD

T3: human CTLA4 expressed on the cell surface of CHO cells (human, UniProt P16410 36-223)
T3 construct: whole, on cells; also called CHO-huCTLA4; huCTLA4
T3 sequence (looked up): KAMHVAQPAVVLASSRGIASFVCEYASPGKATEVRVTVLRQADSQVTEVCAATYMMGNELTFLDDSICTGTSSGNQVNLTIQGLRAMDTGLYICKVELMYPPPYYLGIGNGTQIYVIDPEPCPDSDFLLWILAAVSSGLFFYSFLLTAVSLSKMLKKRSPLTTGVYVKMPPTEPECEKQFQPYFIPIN


Experiments:
[1] = target: T1, cynomolgus CTLA4 expressed on the cell …; experiment: FACS on CHO-cynoCTLA4 cells, pH 6.0, mean
Procedure: The amount of antibodies bound on the cells was quantified using anti-human IgG antibody conjugated to fluorophores. EC₅₀ values at pH 6.0 and 7.4 for binding to cells were calculated using the nonlinear fit (variable slope, four parameters) model built into GraphPad Prism software (version 7.03). The expression levels of human CTLA4 or cynomolgus CTLA4 on the surface of the CHO cells were determined using a BD QuantiBRITE™ PE kit.

[2] = target: T2, recombinant cynomolgus CTLA4 …; experiment: ELISA, immobilised cynoCTLA-4, pH 6.0, mean +/- SD
[3] = target: T2, recombinant cynomolgus CTLA4 …; experiment: ELISA, immobilised cynoCTLA-4, pH 6.0, Jun. 19, 2017
[4] = target: T2, recombinant cynomolgus CTLA4 …; experiment: ELISA, immobilised cynoCTLA-4, pH 6.0, Jun. 27, 2017
[5] = target: T2, recombinant cynomolgus CTLA4 …; experiment: SPR, cynomolgus CTLA4 ECD immobilised, pH 6.0, equilibrium fit
[6] = target: T1, cynomolgus CTLA4 expressed on the cell …; experiment: FACS, CHO cells expressing cynomolgus CTLA4 (CHO-cynoCTLA-4), pH 7.4, MFI; no unit in the table, unit from the axis Log Antibodies [ng/ml]
[7] = target: T3, human CTLA4 expressed on the cell …; experiment: FACS competition on CHO-huCTLA4: hB7-2 titrated against a fixed concentration of Ipilimumab, bound antibody detected, % competition; pH 6.0 per the text; no plateau reached (about 25 to 45 % at log 3.95); unit from the axis hB7-2 log[ng/mL]
[8] = target: T3, human CTLA4 expressed on the cell …; experiment: FACS competition on CHO-huCTLA4: hB7-2 titrated against a fixed concentration of BA-087-05-19, bound antibody detected, % competition; pH 6.0 per the text; no plateau reached (about 25 to 45 % at log 3.95); unit from the axis hB7-2 log[ng/mL]
[9] = target: T3, human CTLA4 expressed on the cell …; experiment: FACS competition on CHO-huCTLA4: hB7-2 titrated against a fixed concentration of BA-087-08-32, bound antibody detected, % competition; pH 6.0 per the text; no plateau reached (about 25 to 45 % at log 3.95); unit from the axis hB7-2 log[ng/mL]
[10] = target: T3, human CTLA4 expressed on the cell …; experiment: FACS competition on CHO-huCTLA4: hB7-2 titrated against a fixed concentration of Ipi Analog, bound antibody detected, % competition; pH 6.0 per the text; no plateau reached (about 25 to 45 % at log 3.95), fit marked ~; unit from the axis hB7-2 log[ng/mL]

| EC50 [1] | EC50 [2] | EC50 [3] | EC50 [4] | Kd [5] | EC50 [6] | EC50 [7] | EC50 [8] | EC50 [9] | EC50 [10] | Binder |
| --- | --- | --- | --- | --- | --- | --- | --- | --- | --- | --- |
| 0.338 µg/mL | 0.0153 µg/mL | 0.00966 µg/mL | 0.021 µg/mL | 6.58 nM | 0.177 µg/mL | – | – | – | – | Ipilimumab (antibody, V domains shown) VH: QVQLVESGGGVVQPGRSLRLSCAASGFTFSSYTMHWVRQAPGKGLEWVTFISYDGNNKYYADSVKGRFTISRDNSKNTLYLQMNSLRAEDTAIYYCARTGWLGPFDYWGQGTLVTVSS VL: not shown |
| – | – | – | – | – | – | 7.19 µg/mL | 3.73 µg/mL | 3.87 µg/mL | ~2.45 µg/mL | hB7-2 (hCD86) (ligand, human, UniProt P42081 24-247, looked up) APLKIQAYFNETADLPCQFANSQNQSLSELVVFWQDQENLVLNEVYLGKEKFDSVHSKYMGRTSFDSDSWTLRLHNLQIKDKGLYQCIIHHKKPTGMIRIHQMNSELSVLANFSQPEIVPISNITENVYINLTCSSIHGYPEPKKMSVLLRTKNSTIEYDGVMQKSQDNVTELYDVSISLSVSFPDVTSNMTIFCILETDKTRLLSSPFSIELEDPQPPPDHIP |
